Measurements reported in patent US20140348819A1, “Methods of Treating Cancer” (Dana-Farber Cancer Institute, Inc., priority 2011, published 2014).

System: six V600E BRAF melanoma cell lines
Experiment: Screening of recombinant RTK ligands for ability to confer resistance to BRAFi (PLX4720) or MEKi (PD184352) (Table 4)
Assay type: cell-based, human
How it was run: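 Resistance to BRAFi (PLX4720) or MEKi (PD184352) was tested in six V600E BRAF melanoma lines given one of 22 recombinant RTK ligands. For a subset of RTKs, activation was checked by high-throughput tyrosine kinase phosphorylation profiling and western blot.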

B1: MSP (protein, UniProt P26927 19-711, looked up)
Hepatocyte growth factor-like …: QRSPLNDFQVLRGTELQHLLHAVVPGPWQEDVADAEECAGRCGPLMDCRAFHYNVSSHGCQLLPWTQHSPHTRLRRSGRCDLFQKKDYVRTCIMNNGVGYRGTMATTVGGLPCQAWSHKFPNDHKYTPTLRNGLEENFCRNPDGDPGGPWCYTTDPAVRFQSCGIKSCREAACVWCNGEEYRGAVDRTESGRECQRWDLQHPHQHPFEPGKFLDQGLDDNYCRNPDGSERPWCYTTDPQIEREFCDLPRCGSEAQPRQEATTVSCFRGKGEGYRGTANTTTAGVPCQRWDAQIPHQHRFTPEKYACKDLRENFCRNPDGSEAPWCFTLRPGMRAAFCYQIRRCTDDVRPQDCYHGAGEQYRGTVSKTRKGVQCQRWSAETPHKPQFTFTSEPHAQLEENFCRNPDGDSHGPWCYTMDPRTPFDYCALRRCADDQPPSILDPPDQVQFEKCGKRVDRLDQRRSKLRVVGGHPGNSPWTVSLRNRQGQHFCGGSLVKEQWILTARQCFSSCHMPLTGYEVWLGTLFQNPQHGEPSLQRVPVAKMVCGPSGSQLVLLKLERSVTLNQRVALICLPPEWYVVPPGTKCEIAGWGETKGTGNDTVLNVALLNVISNQECNIKHRGRVRESEMCTEGLLAPVGACEGDYGGPLACFTHNCWVLEGIIIPNRVCARSRWPAVFTRVSVFVDWIHKVMRLG
For B1, the “ability of recombinant RTK ligand to confer resistance” value (from here on “ability of recombinant RTK ligand”) (A2058, PD184352 - 1 uM, ligand 0.4 ng/ml) was 1.06, the “ability of recombinant RTK ligand” value (A2058, PD184352 - 1 uM, ligand 1.6 ng/ml) was 0.98 and the “ability of recombinant RTK ligand” value (A2058, PD184352 - 1 uM, ligand 6.25 ng/ml) was 1.03. The “ability of recombinant RTK ligand” value (A2058, PD184352 - 1 uM, ligand 25 ng/ml) was 1.09, the “ability of recombinant RTK ligand” value (A2058, PD184352 - 1 uM, ligand 100 ng/ml) was 1.05 and the “ability of recombinant RTK ligand” value (A2058, PLX4720 - 2 uM, ligand 0.4 ng/ml) was 1.04. The “ability of recombinant RTK ligand” value (A2058, PLX4720 - 2 uM, ligand 1.6 ng/ml) was 1.02, the “ability of recombinant RTK ligand” value (A2058, PLX4720 - 2 uM, ligand 6.25 ng/ml) was 1.05 and the “ability of recombinant RTK ligand” value (A2058, PLX4720 - 2 uM, ligand 25 ng/ml) was 1.04. For the same molecule, the “ability of recombinant RTK ligand” value (A2058, PLX4720 - 2 uM, ligand 100 ng/ml) was 1.05, the “ability of recombinant RTK ligand” value (C32, PD184352 - 1 uM, ligand 0.4 ng/ml) was 0.99 and the “ability of recombinant RTK ligand” value (C32, PD184352 - 1 uM, ligand 1.6 ng/ml) was 1.02. The “ability of recombinant RTK ligand” value (C32, PD184352 - 1 uM, ligand 6.25 ng/ml) was 1.07, the “ability of recombinant RTK ligand” value (C32, PD184352 - 1 uM, ligand 25 ng/ml) was 1.01 and the “ability of recombinant RTK ligand” value (C32, PD184352 - 1 uM, ligand 100 ng/ml) was 0.95. The “ability of recombinant RTK ligand” value (C32, PLX4720 - 2 uM, ligand 0.4 ng/ml) was 1.07, the “ability of recombinant RTK ligand” value (C32, PLX4720 - 2 uM, ligand 1.6 ng/ml) was 1.01 and the “ability of recombinant RTK ligand” value (C32, PLX4720 - 2 uM, ligand 6.25 ng/ml) was 1.04. The “ability of recombinant RTK ligand” value (C32, PLX4720 - 2 uM, ligand 25 ng/ml) was 1.02, the “ability of recombinant RTK ligand” value (C32, PLX4720 - 2 uM, ligand 100 ng/ml) was 0.95 and the “ability of recombinant RTK ligand” value (Colo 829, PD184352 - 1 uM, ligand 0.4 ng/ml) was 1.03. For the same molecule, the “ability of recombinant RTK ligand” value (Colo 829, PD184352 - 1 uM, ligand 1.6 ng/ml) was 0.98, the “ability of recombinant RTK ligand” value (Colo 829, PD184352 - 1 uM, ligand 6.25 ng/ml) was 1.01 and the “ability of recombinant RTK ligand” value (Colo 829, PD184352 - 1 uM, ligand 25 ng/ml) was 0.96. For the same molecule, the “ability of recombinant RTK ligand” value (Colo 829, PD184352 - 1 uM, ligand 100 ng/ml) was 0.93, the “ability of recombinant RTK ligand” value (Colo 829, PLX4720 - 2 uM, ligand 0.4 ng/ml) was 0.98 and the “ability of recombinant RTK ligand” value (Colo 829, PLX4720 - 2 uM, ligand 1.6 ng/ml) was 0.94. The “ability of recombinant RTK ligand” value (Colo 829, PLX4720 - 2 uM, ligand 6.25 ng/ml) was 1.03, the “ability of recombinant RTK ligand” value (Colo 829, PLX4720 - 2 uM, ligand 25 ng/ml) was 0.97 and the “ability of recombinant RTK ligand” value (Colo 829, PLX4720 - 2 uM, ligand 100 ng/ml) was 0.99. For the same molecule, the “ability of recombinant RTK ligand” value (G-361, PD184352 - 1 uM, ligand 0.4 ng/ml) was 1.04, the “ability of recombinant RTK ligand” value (G-361, PD184352 - 1 uM, ligand 1.6 ng/ml) was 0.96 and the “ability of recombinant RTK ligand” value (G-361, PD184352 - 1 uM, ligand 6.25 ng/ml) was 0.92. For the same molecule, the “ability of recombinant RTK ligand” value (G-361, PD184352 - 1 uM, ligand 25 ng/ml) was 0.98, the “ability of recombinant RTK ligand” value (G-361, PD184352 - 1 uM, ligand 100 ng/ml) was 0.90 and the “ability of recombinant RTK ligand” value (G-361, PLX4720 - 2 uM, ligand 0.4 ng/ml) was 1.00. The “ability of recombinant RTK ligand” value (G-361, PLX4720 - 2 uM, ligand 1.6 ng/ml) was 0.89, the “ability of recombinant RTK ligand” value (G-361, PLX4720 - 2 uM, ligand 6.25 ng/ml) was 0.91 and the “ability of recombinant RTK ligand” value (G-361, PLX4720 - 2 uM, ligand 25 ng/ml) was 0.93. For the same molecule, the “ability of recombinant RTK ligand” value (G-361, PLX4720 - 2 uM, ligand 100 ng/ml) was 0.88, the “ability of recombinant RTK ligand” value (SK-MEL-5, PD184352 - 1 uM, ligand 0.4 ng/ml) was 0.94 and the “ability of recombinant RTK ligand” value (SK-MEL-5, PD184352 - 1 uM, ligand 1.6 ng/ml) was 1.11. The “ability of recombinant RTK ligand” value (SK-MEL-5, PD184352 - 1 uM, ligand 6.25 ng/ml) was 1.00, the “ability of recombinant RTK ligand” value (SK-MEL-5, PD184352 - 1 uM, ligand 25 ng/ml) was 0.99 and the “ability of recombinant RTK ligand” value (SK-MEL-5, PD184352 - 1 uM, ligand 100 ng/ml) was 1.11. For the same molecule, the “ability of recombinant RTK ligand” value (SK-MEL-5, PLX4720 - 2 uM, ligand 0.4 ng/ml) was 0.87, the “ability of recombinant RTK ligand” value (SK-MEL-5, PLX4720 - 2 uM, ligand 1.6 ng/ml) was 1.03 and the “ability of recombinant RTK ligand” value (SK-MEL-5, PLX4720 - 2 uM, ligand 6.25 ng/ml) was 0.98. The “ability of recombinant RTK ligand” value (SK-MEL-5, PLX4720 - 2 uM, ligand 25 ng/ml) was 1.01, the “ability of recombinant RTK ligand” value (SK-MEL-5, PLX4720 - 2 uM, ligand 100 ng/ml) was 1.12 and the “ability of recombinant RTK ligand” value (SK-MEL-28, PD184352 - 1 uM, ligand 0.4 ng/ml) was 0.95. The “ability of recombinant RTK ligand” value (SK-MEL-28, PD184352 - 1 uM, ligand 1.6 ng/ml) was 0.94, the “ability of recombinant RTK ligand” value (SK-MEL-28, PD184352 - 1 uM, ligand 6.25 ng/ml) was 1.00 and the “ability of recombinant RTK ligand” value (SK-MEL-28, PD184352 - 1 uM, ligand 25 ng/ml) was 1.01. The “ability of recombinant RTK ligand” value (SK-MEL-28, PD184352 - 1 uM, ligand 100 ng/ml) was 0.97, the “ability of recombinant RTK ligand” value (SK-MEL-28, PLX4720 - 2 uM, ligand 0.4 ng/ml) was 0.92 and the “ability of recombinant RTK ligand” value (SK-MEL-28, PLX4720 - 2 uM, ligand 1.6 ng/ml) was 1.02. For the same molecule, the “ability of recombinant RTK ligand” value (SK-MEL-28, PLX4720 - 2 uM, ligand 6.25 ng/ml) was 1.00, the “ability of recombinant RTK ligand” value (SK-MEL-28, PLX4720 - 2 uM, ligand 25 ng/ml) was 0.97 and the “ability of recombinant RTK ligand” value (SK-MEL-28, PLX4720 - 2 uM, ligand 100 ng/ml) was 0.93.
